This passage reports binding result and Kd results from patent US20030078221, “High affinity nucleic acid ligands of complement system proteins” (Gilead Sciences, Inc., published 2003).

Substitutions are numbered along the chain they refer to.

In data set [1] the target is T1, Complement C1q (UniProt P02745;P02746;P02747 P02745:23-245,P02746:28-253,P02747:29-245). Put plainly: filter; above background at 0.1 and 0.5 nM C1q. The conditions noted are these: tags: Quidel; chain copies: 6.
Data set [2] concerns the target T2, Complement C5 (Homo sapiens, UniProt P01031;P01031 P01031:19-673,P01031:678-1676). Description: filter; MgPBS 37C. The settings on record: tags: Quidel. On the procedure: (§1) Individual cloned DNA was T7 transcribed with α-[³²P]-ATP and the full length [³²P]-2′-NH₂-RNA or 2′-F-RNA was gel-purified (as above). RNA was suspended at approximately 5,000 cpm per 30 μL sample (<10 pM), and aliquots were incubated with various concentrations of C1q, C3 or C5 in MgPBS for 10 minutes at 37° C. Samples were then filtered through nitrocellulose, the filters washed with buffer and dried under an infrared lamp, and counted with addition of scintillation fluid (Ecoscint A, National Diagnostics, Atlanta, Ga.). A background sample of RNA alone was run in parallel. […] Filters were washed and counted.
(§2) Sequences were grouped according to homology and function.

Data set [3] has as its target T2, Complement C5. Put plainly: filter; Group I affinities stated very similar. The conditions noted are these: tags: Quidel. Here is the method:
as §1, §2

Data set [4] addresses T1, Complement C1q. Put plainly: filter; MgPBS 37C; SEQ 12 in listing differs from Table 2 near the 3' end. The conditions noted are these: tags: Quidel; chain copies: 6. On the procedure: as §1
In data set [5] the target is T2, Complement C5. Description: filter; minimal binding truncate. The conditions noted are these: tags: Quidel; stem-loop with UUU bulge. Here is the method:
as §1

Data set [6] has as its target T1, Complement C1q. Put plainly: filter; MgPBS 37C. The settings on record: tags: Quidel; chain copies: 6. On the procedure: as §1
In data set [7] the target is T2, Complement C5. Description: filter. The settings on record: tags: Quidel.
For data set [8], the target named is T2, Complement C5. Put plainly: filter; >10-fold over background at 100 and 10 nM C5; 2'-OMe interference. The conditions noted are these: tags: Quidel. From the text:
The partially substituted 2′-OMe oligonucleotides were 5′-[³²P] -kinase-labeled. […] The oligonucleotides were eluted from the protein, alkaline hydrolyzed and then run on a 20% acrylamide/7 M urea/TBE sequencing gel. On adjacent tracks were run oligonucleotides not selected with C5. Band intensities were quantitated with on an Instantlmager (Packard, Meriden, Conn.).

The target of data set [9] is T1, Complement C1q. Put plainly: filter; above background; SEQ 20 in listing differs from Table 2. The settings on record: tags: Quidel; chain copies: 6.
Data set [10] concerns the target T2, Complement C5. Description: filter; reduced binding. The conditions noted are these: tags: Quidel.
In data set [11] the target is T1, Complement C1q. Put plainly: FP; nitrocellulose filter binding, MgPBS 37C. The settings on record: tags: Quidel; chain copies: 6. Here is the method: as §1
Data set [12] deals with T1, Complement C1q. Put plainly: filter; above background; SEQ 13 in listing differs from Table 2 near the 3' end. The settings on record: tags: Quidel; chain copies: 6.

T1 sequence (P02745 23-245, chain 1 of 3): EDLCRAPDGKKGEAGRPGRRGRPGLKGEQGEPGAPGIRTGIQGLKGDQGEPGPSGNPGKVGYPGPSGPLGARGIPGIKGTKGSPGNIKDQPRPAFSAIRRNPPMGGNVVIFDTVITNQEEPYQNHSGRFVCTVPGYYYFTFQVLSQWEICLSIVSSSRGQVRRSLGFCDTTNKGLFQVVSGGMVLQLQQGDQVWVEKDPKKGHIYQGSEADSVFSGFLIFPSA
T1 sequence (P02746 28-253, chain 2 of 3): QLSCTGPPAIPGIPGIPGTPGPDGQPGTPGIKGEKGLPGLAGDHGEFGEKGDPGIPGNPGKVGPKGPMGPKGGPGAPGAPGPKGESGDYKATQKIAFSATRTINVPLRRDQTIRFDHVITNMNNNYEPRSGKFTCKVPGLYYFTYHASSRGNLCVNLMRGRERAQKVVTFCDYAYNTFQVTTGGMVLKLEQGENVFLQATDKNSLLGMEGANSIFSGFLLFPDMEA
T1 sequence (P02747 29-245, chain 3 of 3): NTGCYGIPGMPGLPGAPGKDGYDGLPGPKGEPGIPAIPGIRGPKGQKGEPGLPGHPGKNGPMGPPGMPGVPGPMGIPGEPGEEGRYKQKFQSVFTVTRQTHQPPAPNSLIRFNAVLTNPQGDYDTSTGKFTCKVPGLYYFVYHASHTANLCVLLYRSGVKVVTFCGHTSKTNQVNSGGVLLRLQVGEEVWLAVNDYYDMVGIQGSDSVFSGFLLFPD

B1: C1q clone 3 (ssRNA)
RNA: GGGAGGACGAUGCGGGAGGAGUGGAGGUAAACAAUAGGUCGGUAGCGACUCCCACUAACAGGCCUCAGACGACUCGCCCGA
modifications: 2'-NH2 pyrimidines
In the case of B1, in the data set with Complement C1q [1], the binding result was “binds”.

B2: E5c/E11 (ssRNA)
RNA: GGGAGGACGAUGCGGUCCGGCGCGCUGAGUGCCGGUUAUCCUCGUCAGACGACUCGCCCGA
modifications: 2'-F pyrimidines
A word on the Kd: it is the free concentration of one partner at which half of the binding sites on the other are occupied at equilibrium, for simple one-to-one binding. B2: binding with Complement C5 [2] was put at a Kd of 60 nM. In other words, the double-digit nanomolar range.

B3: C1q clone 40 (ssRNA)
RNA: GGGAGGACGAUGCGGCUGGUAGCAUGUGCAUUGAUGGGAGGAGUGGAGGUCACCGUCAACCGUCAGACGACUCGCCCGA
modifications: 2'-NH2 pyrimidines
B3: the binding result in the data set with Complement C1q [1] is recorded as “binds”.

B4: F8 (ssRNA)
RNA: GGGAGGACGAUGCGGUCUCAUGCGCCGAGUGUGAGUUUACCUUCGUCAGACGACUCGCCCGA
modifications: 2'-F pyrimidines
On to B4, for which the Kd in the data set with Complement C5 [2] came out at 30 nM.

B5: G7 (ssRNA)
RNA: B4 RNA with C19G, A20C, G22A, C26U, U32G, G33C, A34U
modifications: 2'-F pyrimidines
As to B5, the binding result with Complement C5 [3] is “binds”.

B6: K7 (ssRNA)
RNA: B4 RNA with C25U, C40A, U43G
modifications: 2'-F pyrimidines
As for B6, in the data set with Complement C5 [3], the binding result was “binds”.

B7: H1 (ssRNA)
RNA: B4 RNA with U18G, C19G, G31C, G33C, A34C
modifications: 2'-F pyrimidines
As to B7, the binding result with Complement C5 [3] is “binds”.

B8: A6 (ssRNA)
RNA: GGGAGGACGAUGCGGUCCGGCGCGCUGAGUGCCGGUUUAUCCUCGUCAGACGACUCGCCCGA
modifications: 2'-F pyrimidines
B8 came in with a Kd with Complement C5 [2] of 35 nM.

B9: C1q clone 50 (ssRNA)
RNA: GGGAGGACGAUGCGGGUGGAGUGGAGGUAUAACGGCCGGUAGCGCAUCCCACUCGGGUCUGUGCUAGACGACUCGCCCGA
modifications: 2'-NH2 pyrimidines
In the data set with Complement C1q [4], B9 returned a Kd of 0.979 nM. CGAUGCGGUCUCAUGCGUCGAGUGUGAGUUUACCUUCG (ssRNA, 2'-F pyrimidines) [C6 38mer truncate] registered a Kd with Complement C5 [5] of 20 nM. In other words, the double-digit nanomolar range.

B10: C1q clone 47 (ssRNA)
RNA: GGGAGGACGAUGCGGGUGGAGCGGAGGUUUAUACGGCUGGUAGCUCGAGCUCCCUAACACGCGGUAGACGACUCGCCCGA
modifications: 2'-NH2 pyrimidines
For the molecule B10, the binding result with Complement C1q [1] is listed as “binds”.

B11: C1q clone 14 (ssRNA)
RNA: GGGAGGACGAUGCGGCACCUCACCUCCAUAUUGCCGGUUAUCGCGUAGGGUGAGCCCAGACACGACAGACGACUCGCCCGA
modifications: 2'-NH2 pyrimidines
Take B11: the Kd in the data set with Complement C1q [6] was found to be 2.4 nM.

B12: C1q clone 23c (ssRNA)
RNA: GGGAGGACGAUGCAAGUGGAGUGGAGGUAUAACGGCCGGUAGGCAUCCCACUCGGGCCUAGCUCAGACGACUCGCCCGA
modifications: 2'-NH2 pyrimidines
For the molecule B12, in the data set with Complement C1q [1], the binding result is “binds”.

B13: C1q clone 33 (ssRNA)
RNA: GGGAGGACGAUGCGGGUUGCUGGUAGCCUGAUGUGGGUGGAGUGAGUGGAGGGUUGAAAAAUGCAGACGACUCGCCCGA
modifications: 2'-NH2 pyrimidines
B13 yielded a Kd with Complement C1q [6] of 3.85 nM.

B14: C1q clone 22 (ssRNA)
RNA: GGGAGGACGAUGCGGGCAUAGUGGGCAUCCCAGGGUUGCCUAACGGCAUCCGGGGUUGUUAUUGGCAGACGACUCGCCCGA
modifications: 2'-NH2 pyrimidines
Regarding B14, in the data set with Complement C1q [1], the binding result was “binds”.

B15: YL-56 (ssRNA)
RNA: GGGAGAUAAGAAUAAACGCUCAAGGUACACGCGGUCUGACGCGCUGAGUGUCAGUUUACCUUGUACUUCGACAGGAGGCUCACAACAGGC
modifications: 2'-F pyrimidines
B15: binding in the data set with Complement C5 [7] was characterised by a dissociation constant (Kd) of 12 nM.

B16: YL-79 (ssRNA)
RNA: GGGAGAUAAGAAUAAACGCUCAAGAACCACGCGGUCUCAGGCGUAGAGUCUGAGUUUACCUUGGUUUUCGACAGGAGGCUCACAACAGGC
modifications: 2'-F pyrimidines
In the case of B16, binding with Complement C5 [7] was put at a Kd of 15 nM.

B17: YL-13 (ssRNA)
RNA: B16 RNA with A25G, C28G, A29C, U44C, A45U, U62G, G63C, U66C
modifications: 2'-F pyrimidines
In turn, B17 showed a Kd with Complement C5 [7] of 6 nM.

B18: C9 (ssRNA)
RNA: GGGAGGACGAUGCGGUGAGCGUGUAAAACGGUUUCGAUAGAGCCUCAGACGACUCGCCCGA
modifications: 2'-F pyrimidines
The molecule B18 yielded a Kd in the data set with Complement C5 [2] of 45 nM. This lies in the double-digit nanomolar range.

B19: C1q clone 30 (ssRNA)
RNA: GGGAGGACGAUGCGGGUGGAGUGGGGAUCAUACGGCUGGUAGCACGAGCUCCCUAACAGCGGUCAGACGACUCGCCCGA
modifications: 2'-NH2 pyrimidines
Take B19: the binding result with Complement C1q [1] is on record as “binds”.

B20: C1q clone 45 (ssRNA)
RNA: GGGAGGACGAUGCGGUGGAGUGGAGGUAUACCGGCCGGUAGCGCAUCCCACUCGGGUCUGUGCUCAGACGACUCGCCCGA
modifications: 2'-NH2 pyrimidines
Regarding B20, in the data set with Complement C1q [6], the affinity, expressed as Kd, was 1.38 nM. In the data set with Complement C5 [2], GGGAGGAGGAUCGGUGUUCAGCAUUCAGAUCUUCAGACGACUCGCCCGA (ssRNA, 2'-F pyrimidines) [E4c] registered a Kd of 50 nM.

B21: C1q clone 43 (ssRNA)
RNA: GGGAGGACGAUGCGGUUUCUCGGCCAGUAGUUUGCGGGUGGAGUGGAGGUAUAUCUGCGUCCUCGCAGACGACUCGCCCGA
modifications: 2'-NH2 pyrimidines
For the molecule B21, in the data set with Complement C1q [1], the binding result is “binds”. On to CGCCGCGGUCUCAGGCGCUGAGUCUGAGUUUACCUGCG (ssRNA, 2'-F pyrimidines; selected purines 50% 2'-OMe) [M3010], for which the binding result in the data set with Complement C5 [8] is on record as “binds”.

With CGCCGCGGUCUCAGGCGCUGAGUCUGAGUUUACCUGCG (ssRNA, 2'-F pyrimidines; selected purines 50% 2'-OMe) [M3030], the binding result with Complement C5 [8] is “binds”. Still for that read-out and setting: then CGCCGCGGUCUCGGGCGCUGAGUCUGAGUUUACCUGCG (ssRNA, 2'-F pyrimidines; selected purines 50% 2'-OMe) [M3020], with “binds”.

B22: C1q clone 67 (ssRNA)
RNA: GGGAGGACGAUGCGGCAGACGACUCGCCCGAGGGGAUCCCCCGGGCCUGCAGGAAUUCGAUAUCAGACGACUCGCCCGA
modifications: 2'-NH2 pyrimidines
For B22, the binding result with Complement C1q [9] is on record as “binds”. In the data set with Complement C5 [10], GAUGCGGUCUCAUGCGUCGAGUGUGAGUUUACCUUC (ssRNA, 2'-F pyrimidines) [C6 36mer truncate] came in with an equilibrium dissociation constant (Kd) of 50 nM.

B23: YL-14 (ssRNA)
RNA: GGGAGAUAAGAAUAAACGCUCAAGUACGACGCGGUCCCGUGCGUGGAGUGCGGGUUUACCUUCGUAUUCGACAGGAGGCUCACAACAGGC
modifications: 2'-F pyrimidines
For B23, binding in the data set with Complement C5 [7] was put at a Kd of 25 nM.

B24: C1q clone 36 (ssRNA)
RNA: GGGAGGACGAUGCGGGAGGAGUGGAGGUAAACAAUAGGCCGGUAGCGACUCCCACUAACAGCCUCAGACGACUCGCCCGA
modifications: 2'-NH2 pyrimidines
B24: the Kd with Complement C1q [11] is 0.29 nM. In other words, the sub-nanomolar range.

B25: C1q clone 12 (ssRNA)
RNA: B24 RNA with A17U, C39U, C55G, A60G
modifications: 2'-NH2 pyrimidines
Turning to B25, the binding result with Complement C1q [1] is on record as “binds”.

B26: C1q clone 78 (ssRNA)
RNA: GGGAGGACGAUGCGGGUGGAGUGGAGGGUAAACAAUGGCUGGUGGCAUUCGGAAUCUCCCAACGUAGACGACUCGCCCGA
modifications: 2'-NH2 pyrimidines
In the case of B26, the binding result in the data set with Complement C1q [12] was “binds”.
